Measured values reported in US20190134195A1.

Biological target: PDL1 on the surface of TC-1 cells (UniProt Q9EP73)
Experiment: flow cytometry, staining of TC-1 tumor cells (background control)

Chain of UniProt Q9EP73 (Q9EP73 19-290 limits assumed): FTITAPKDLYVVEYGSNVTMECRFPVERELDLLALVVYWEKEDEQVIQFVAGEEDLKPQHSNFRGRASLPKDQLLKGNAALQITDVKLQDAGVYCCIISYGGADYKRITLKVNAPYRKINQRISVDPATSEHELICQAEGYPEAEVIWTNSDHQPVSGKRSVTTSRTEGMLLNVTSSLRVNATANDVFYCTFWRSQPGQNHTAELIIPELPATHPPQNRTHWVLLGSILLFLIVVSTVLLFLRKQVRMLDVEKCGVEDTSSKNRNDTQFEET

median fluorescent intensity (MFI): 184
Substance: PE-conjugated isotype control antibody
